Values quoted from earlier work, collected in article PMC10530560 (Cell chemical biology, 2023).

B1: PSGL-1: P-selectin glycoprotein ligand-1 as tested in previous literature studies (protein, UniProt Q14242 42-412, looked up)
P-selectin glycoprotein …: QATEYEYLDYDFLPETEPPEMLRNSTDTTPLTGPGTPESTTVEPAARRSTGLDAGGAVTELTTELANMGNLSTDSAAMEIQTTQPAATEAQTTQPVPTEAQTTPLAATEAQTTRLTATEAQTTPLAATEAQTTPPAATEAQTTQPTGLEAQTTAPAAMEAQTTAPAAMEAQTTPPAAMEAQTTQTTAMEAQTTAPEATEAQTTQPTATEAQTTPLAAMEALSTEPSATEALSMEPTTKRGLFIPFSVSSVTHKGIPMAASNLSVNYPVGAPDHISVKQCLLAILILALVATIFFVCTVVLAVRLSRKGHMYPVRNYSPTEMVCISSLLPDGGEGPSATANGGLSKAKSPGLTPEPREDREGDDLTLHSFLP

Columns and labels:
CCL5 [1] = test system: CCL5
CXCL12 [2] = test system: CXCL12
CCL5 [3] = settings: CCL5, immobilized rPSGL-1 with SLe^x modification
VISTA = settings: pH-dependent; dependent on tyrosine sulfation, not on SLe^x on Thr57
CXCL12 [4] = settings: CXCL12, chemotaxis assays using murine T-cells from WT and PSGL-1 null mice

Molecule | heparan sulfate binding (CCL5 [1]) | heparan sulfate binding (CXCL12 [2]) | heparan sulfate binding (CXCL8) | heparan sulfate binding (CCL3) | binding to PSGL-1 (CCL5 [3]) | binding to PSGL-1 (CCL21) | binding of VISTA (VISTA) | binding to PSGL-1 (CXCL12 [4]) | binding to PSGL-1 (CCL19) | binding to PSGL-1 (CCL27)
heparan sulfate | found to bind | found to bind | did not bind | did not bind | – | – | – | – | – | –
B1 | – | – | – | – | did not bind | reported to bind PSGL-1 | novel pH-dependent ligand | did not bind | reported to bind PSGL-1 | reported to bind PSGL-1
